Test results from publication PMC8847413 (Nature Communications, 2022).

B1: MAb 8D3 (IgG) (antibody, V domains shown)
VH: EVQLQQSGPELVKPGASVKISCKTSGYTFTEYTMYWVKQSHGKSLEWIGGINPNIGDTSYNQNFKGKATLTVDRSSSTAYMELRSLTSEDSAVYYCARDGYPYYYALDHWGQGTSVTVSS
VL: DIVMTQSQKFMSTSVGDRVSVTCKASQNVGTNVAWYQQKPGQSPKALIYSTSYRYSGVPDRFTGSGSGTDFTLTISNVQSEDLAEYFCQQYNSYPYTFGGGTKLEIK
notes: copies: 2 + 2
B2: MAb 3C1 (antibody, V domains shown)
VH: EVQLQESGPSLVKPSQTLSLTCSVTGDSITNGYWNWIRKFPGNKLEYMGYISYSGSTYYSPSLKSRISITRDTSKNQHYLQLNSVTSEDTATYYCASDYHGSKYYFDYWGQGTTLTVSS
VL: DIVMTQSHKFMSTSVGHRVSITCKASQDVGNDVAWYQQKPGQSPKLLIYWASTRHTGVPDRFTGSGSGTDFTLTISNVQSEDLADYFCQQYNRYPYTFGGGTKLEIK
notes: copies: 2 + 2
B3: MAb 2H2 (antibody, V domains shown)
VH: QVQLKQSGPSLVQPSQSLSITCTVSGFSLTSYGVHWVRQSPGKGLEWLGVMWRGGNTDYNAAFMSRLSITKDNSKSQVFFKMNSLQTDDTAIYYCAKNGGAHAMDFWGQGTSVTVSS
VL: NIVLTQSPASLAVSLGQRATISCRASESVDSYGNSFLHWYQQKPGQPPKLLIYLASNLESGVPARFSGSGSRTDFTLTIDPVEADDAATYYCQQNNEDPFTFGSGTKLEIK
notes: copies: 2 + 2

Target: T1, recombinant RBD protein derived from the SARS-CoV-2 WT strain (SARS-CoV-2 wild type (Wuhan-Hu-1), UniProt P0DTC2)
T1 construct: also called WT-RBD; WT RBD
Assay: ELISA
Settings: both partners purified

Row | Binder | binding result
1 | B1 | binds
2 | B2 | binds
3 | B3 | binds
